Like-named read-outs stand apart in the source and are kept apart here. Square brackets hold non-standard residues; d marks the D form. Ends that are not written are not given here. * marks the point of attachment. Phe(3,4-Cl2) = N[C@@H](Cc1ccc(Cl)c(Cl)c1)C(=O)O; Propanoyl(3-(3-pyridyl)) = O=C(CCc1cccnc1)*; Phe(4-NH2) = Nc1ccc(C[C@H](N)C(=O)O)cc1; Arg(Me) = CNC(=N)NCCC[C@H](N)C(=O)O; Bta = N[C@@H](Cc1csc2ccccc12)C(=O)O; 4Pal = N[C@@H](Cc1ccncc1)C(=O)O; d4Pal = N[C@H](Cc1ccncc1)C(=O)O; Cha = N[C@@H](CC1CCCCC1)C(=O)O; Abu = CC[C@H](N)C(=O)O; azaGly = NNC(=O)O
What was measured:
[1] = target: human OT7T175 (metastin receptor) (human) (UniProt Q969F8); test: FMAT competition with Cy-5-labeled metastin (40-54), hOT7T175-expressed CHO cells
[2] = target: T1, human OT7T175 (metastin receptor) (human, UniProt Q969F8 1-398); test: as above
T1 construct: expressed on CHO cells (hOT7T175-expressed CHO cells; hOT7T175/CHO); also called hOT7T175; h0T7T175

[3] = target: T1, human OT7T175 (metastin receptor); test: cell-based or functional assay
[4] = target: T1, human OT7T175 (metastin receptor); test: cell-based or functional assay; remark: listed apart in the source
[5] = target: T1, human OT7T175 (metastin receptor); test: cell-based or functional assay; remark: listed apart in the source
[6] = target: T1, human OT7T175 (metastin receptor); test: cell-based or functional assay; remark: listed apart in the source

T1 sequence (Q969F8 whole entry L364H): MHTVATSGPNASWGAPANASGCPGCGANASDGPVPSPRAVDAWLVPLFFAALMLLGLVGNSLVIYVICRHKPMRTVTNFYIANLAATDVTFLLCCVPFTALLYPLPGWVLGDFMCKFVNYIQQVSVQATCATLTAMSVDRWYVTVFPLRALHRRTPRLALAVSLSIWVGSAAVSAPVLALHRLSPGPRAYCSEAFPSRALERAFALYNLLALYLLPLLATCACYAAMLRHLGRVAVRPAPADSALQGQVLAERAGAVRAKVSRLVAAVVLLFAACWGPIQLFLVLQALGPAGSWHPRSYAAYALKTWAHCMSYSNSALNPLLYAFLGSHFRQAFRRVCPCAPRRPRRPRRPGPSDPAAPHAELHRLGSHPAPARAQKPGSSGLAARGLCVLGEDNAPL
Chain of human OT7T175 (metastin receptor) (human) (Q969F8 whole entry L364H): as above

| Molecule | IC50 [1] | IC50 [2] | intracellular Ca ion level-increasing activity (FLIPR) [3] | intracellular Ca ion level-increasing activity (FLIPR) [4] | cell growth inhibition activity, IC50 [5] | intracellular Ca ion level-increasing activity (FLIPR) [6] |
| --- | --- | --- | --- | --- | --- | --- |
| Compound No. 238: [D-Tyr1,D-Asn2,D-Trp3,AzaGly7,Arg(Me)9]MS10 (peptide) | 49 nM | – | – | – | – | – |
| YNWNSXGLRF (Cha6; C-terminal amide) [Compound No. 156: [Cha6]MS10] | – | 49 nM | 2 specific activity to metastin (1-54) | – | – | – |
| YNWNSFGLRX (Nal(1)10; C-terminal amide) [Compound No. 133: [Nal(1)10]MS10] | – | 330 nM | 3 specific activity to metastin (1-54) | – | – | – |
| [dY]N[Cha]NSF[azaGly]L[Arg(Me)]F-NH2 (N-terminus assumed; SMILES CNC(=N)NCCC[C@H](NC(=O)[C@H](CC(C)C)NC(=O)NNC(=O)[C@H](Cc1ccccc1)NC(=O)[C@H](CO)NC(=O)[C@H](CC(N)=O)NC(=O)[C@H](CC1CCCCC1)NC(=O)[C@H](CC(N)=O)NC(=O)[C@H](N)Cc1ccc(O)cc1)C(=O)N[C@@H](Cc1ccccc1)C(N)=O) [Compound No. 190: [D-Tyr1,Cha3,AzaGly7,Arg(Me)9]MS10] | – | 12 nM | 10 specific activity to metastin (1-54) | – | – | – |
| YNWNSFGLR[Phe(4-NH2)]-NH2 [Compound No. 131: [Phe(4NH2)10]MS10] | – | 120 nM | 3 specific activity to metastin (1-54) | – | – | – |
| YNWNSXGLRF (Nal(2)6; C-terminal amide) [Compound No. 152: [Nal(2)6]MS10] | – | 180 nM | 5 specific activity to metastin (1-54) | – | – | – |
| [dY]N[Cha]NSFGL[Arg(Me)]F-NH2 (N-terminus assumed; SMILES CNC(=N)NCCC[C@H](NC(=O)[C@H](CC(C)C)NC(=O)CNC(=O)[C@H](Cc1ccccc1)NC(=O)[C@H](CO)NC(=O)[C@H](CC(N)=O)NC(=O)[C@H](CC1CCCCC1)NC(=O)[C@H](CC(N)=O)NC(=O)[C@H](N)Cc1ccc(O)cc1)C(=O)N[C@@H](Cc1ccccc1)C(N)=O) [Compound No. 171: [D-Tyr1,Cha3,Arg(Me)9]MS10] | – | 110 nM | 10 specific activity to metastin (1-54) | – | – | – |
| {Propanoyl(3-(3-pyridyl))}-NSF[azaGly]L[Arg(Me)]F-NH2 (SMILES CNC(=N)NCCC[C@H](NC(=O)[C@H](CC(C)C)NC(=O)NNC(=O)[C@H](Cc1ccccc1)NC(=O)[C@H](CO)NC(=O)[C@H](CC(N)=O)NC(=O)CCc1cccnc1)C(=O)N[C@@H](Cc1ccccc1)C(N)=O, also called KiSS322; KiSS1-322) [Compound No. 322: des(1-3)-3-Pyridylpropionyl-[AzaGly7,Arg(Me)9]MS10] | – | 54 nM | – | 1 specific activity to metastin (1-54) | 71.9 nM | – |
| YN[dW]NSFGL[Arg(Me)]F-NH2 [Compound No. 143: [D-Trp3,Arg(Me)9]MS10] | – | 7.7 nM | 3 specific activity to metastin (1-54) | – | – | – |
| [dY]NWNSFGL[Arg(Me)]F-NH2 [Compound No. 141: [D-Tyr1,Arg(Me)9]MS10] | – | – | – | – | 87 nM | – |
| YNWNSFGLR[Phe(3,4-Cl2)]-NH2 [Compound No. 199: [Phe(3,4Cl2)10]MS10] | – | 470 nM | 3 specific activity to metastin (1-54) | – | – | – |
| [dY]N[Cha]NS[Cha]GL[Arg(Me)]W-NH2 (N-terminus assumed; SMILES CNC(=N)NCCC[C@H](NC(=O)[C@H](CC(C)C)NC(=O)CNC(=O)[C@H](CC1CCCCC1)NC(=O)[C@H](CO)NC(=O)[C@H](CC(N)=O)NC(=O)[C@H](CC1CCCCC1)NC(=O)[C@H](CC(N)=O)NC(=O)[C@H](N)Cc1ccc(O)cc1)C(=O)N[C@@H](Cc1c[nH]c2ccccc12)C(N)=O) [Compound No. 182: [D-Tyr1,Cha3,6,Arg(Me)9,Trp10]MS10] | – | 98 nM | 5 specific activity to metastin (1-54) | – | – | – |
| [dY]N[4Pal]NSF[azaGly]L[Arg(Me)]F-NH2 [Compound No. 286: [D-Tyr1,Pya(4) 3,AzaGly7,Arg(Me)9]MS10] | – | 17 nM | – | – | 18.3 nM | 2 specific activity to metastin (1-54) |
| [dY][d4Pal]NSF[azaGly]L[Arg(Me)]F-NH2 (N-terminus assumed; SMILES CNC(=N)NCCC[C@H](NC(=O)[C@H](CC(C)C)NC(=O)NNC(=O)[C@H](Cc1ccccc1)NC(=O)[C@H](CO)NC(=O)[C@H](CC(N)=O)NC(=O)[C@@H](Cc1ccncc1)NC(=O)[C@H](N)Cc1ccc(O)cc1)C(=O)N[C@@H](Cc1ccccc1)C(N)=O, also called KiSS305; KiSS1-305) [Compound No. 305: des(1)-[D-Tyr2,D-Pya(4) 3,AzaGly7,Arg(Me)9]MS10] | – | 1.3 nM | – | 5 specific activity to metastin (1-54) | 8.94 nM | – |
| [dY][dN][4Pal]NSF[azaGly]L[Arg(Me)]F-NH2 [Compound No. 303: [D-Tyr1,D-Asn2,Pya(4) 3,AzaGly7,Arg(Me)9]MS10] | – | 0.5 nM | – | 5 specific activity to metastin (1-54) | 41.2 nM | – |
| YNWNSXGLRF (Nal(1)6; C-terminal amide) [Compound No. 151: [Nal(1)6]MS10] | – | 300 nM | 1 specific activity to metastin (1-54) | – | – | – |
| YNWNSFG[Abu]RF-NH2 (N-terminus assumed; SMILES CC[C@H](NC(=O)CNC(=O)[C@H](Cc1ccccc1)NC(=O)[C@H](CO)NC(=O)[C@H](CC(N)=O)NC(=O)[C@H](Cc1c[nH]c2ccccc12)NC(=O)[C@H](CC(N)=O)NC(=O)[C@@H](N)Cc1ccc(O)cc1)C(=O)N[C@@H](CCCNC(=N)N)C(=O)N[C@@H](Cc1ccccc1)C(N)=O) [Compound No. 187: [Abu8]MS10] | – | 720 nM | 1 specific activity to metastin (1-54) | – | – | – |
| YNWNSFGLR[Bta]-NH2 (N-terminus assumed; SMILES CC(C)C[C@H](NC(=O)CNC(=O)[C@H](Cc1ccccc1)NC(=O)[C@H](CO)NC(=O)[C@H](CC(N)=O)NC(=O)[C@H](Cc1c[nH]c2ccccc12)NC(=O)[C@H](CC(N)=O)NC(=O)[C@@H](N)Cc1ccc(O)cc1)C(=O)N[C@@H](CCCNC(=N)N)C(=O)N[C@@H](Cc1csc2ccccc12)C(N)=O) [Compound No. 189: [Ala(3-Bzt)10]MS10] | – | 230 nM | 10 specific activity to metastin (1-54) | – | – | – |
